Patent US20050266465A1 (MAXYGEN, published 2005)

Assays:
Assay in all cases: cell-based or functional assay
[1] = target: T1, interferon-alpha receptor (type I interferon receptor comprising receptor subunits IFNAR-2 and IFNAR-1) (human, UniProt P17181 28-557; P48551 27-515)
T1 sequence (looked up) 1: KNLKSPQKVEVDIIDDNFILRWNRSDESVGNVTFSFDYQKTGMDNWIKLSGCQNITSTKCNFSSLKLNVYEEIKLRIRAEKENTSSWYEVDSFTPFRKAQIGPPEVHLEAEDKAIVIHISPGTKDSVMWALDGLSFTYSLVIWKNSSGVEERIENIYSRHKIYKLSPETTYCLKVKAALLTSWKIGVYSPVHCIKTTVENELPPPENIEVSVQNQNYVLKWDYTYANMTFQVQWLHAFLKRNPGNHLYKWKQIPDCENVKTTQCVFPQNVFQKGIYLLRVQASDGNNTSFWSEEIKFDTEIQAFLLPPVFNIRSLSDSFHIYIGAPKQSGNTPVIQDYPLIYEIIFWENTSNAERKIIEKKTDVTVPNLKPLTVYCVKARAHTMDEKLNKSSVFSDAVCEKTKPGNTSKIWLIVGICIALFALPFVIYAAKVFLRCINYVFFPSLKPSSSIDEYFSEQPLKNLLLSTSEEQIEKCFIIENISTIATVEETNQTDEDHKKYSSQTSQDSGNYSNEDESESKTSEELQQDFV
T1 sequence (looked up) 2: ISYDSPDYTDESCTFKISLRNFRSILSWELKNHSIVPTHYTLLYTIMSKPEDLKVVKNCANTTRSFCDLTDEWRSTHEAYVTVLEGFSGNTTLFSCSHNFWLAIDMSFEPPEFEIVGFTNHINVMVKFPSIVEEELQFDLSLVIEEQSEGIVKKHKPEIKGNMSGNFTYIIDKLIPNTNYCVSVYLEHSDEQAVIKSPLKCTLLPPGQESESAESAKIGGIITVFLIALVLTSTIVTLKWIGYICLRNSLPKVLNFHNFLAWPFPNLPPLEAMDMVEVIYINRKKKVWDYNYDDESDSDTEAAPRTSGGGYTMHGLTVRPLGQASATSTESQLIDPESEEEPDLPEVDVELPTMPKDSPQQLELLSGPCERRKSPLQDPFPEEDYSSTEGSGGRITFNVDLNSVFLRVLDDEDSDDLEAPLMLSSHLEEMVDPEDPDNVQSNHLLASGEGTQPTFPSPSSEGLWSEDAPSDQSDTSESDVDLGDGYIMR

[2] = target: T1, interferon-alpha receptor (type I …); remark: listed apart in the source
[3] = target: T1, interferon-alpha receptor (type I …); remark: listed apart in the source

Row | Binder | HeLa/EMCV Antiviral activity relative to huIFN-alpha 2b [1] [fold] | HuH7/EMCV Antiviral activity relative to huIFN-alpha 2b [1] [fold] | TH1 activity (IFN-gamma in supernatants of naive T cells), Fold over IFN-alpha 2a [2] [fold] | HeLa-EMCV antiviral assay, antiviral activity relative to monoPEGylated IFN-alpha 2a [3] [fold]
1 | B9x14EC4 (ligand) CDLPQTHSLGHRRTMMLLAQMRRISLFSCLKDRHDFRFPQEEFDGNHFQKVQAIFLFYEMMQQTFNLFSTKDSSAAWDETLLEKFYIELFQQMNDLEACVMQEVGVEETPLMNVDSILAVRKYFQRITLYLTEKKYSPCAWEVVRAEIMRSFSFSTNLQESLRSKE | > 8 | > 8 |  | 
2 | 14epi18 (ligand) CDLPQTHSLGHRRTMMLLAQMRRISLFSCLKDRHDFRFPQEEFDGNHAQKVQAIFLFYEMMQQTFNLFSTKDSSAAWDETLLEKFYIELFQQMNDLEACVMQEVGVEETPLMNVDSILAVRKYFQRITLYLTEKKYSPCAWEVVRAEIMRSFSFSTNLQESLRSKE | > 8 | > 8 | > 30 | 
3 | 14epi19 (ligand) CDLPQTHSLGHRRTMMLLAQMRRISLFSCLKDRHDFRFPQEEFDGNHAQKVQAIALFYEMMQQTFNLFSTKDSSAAWDETLLEKFYIELFQQMNDLEACVMQEVGVEETPLMNVDSILAVRKYFQRITLYLTEKKYSPCAWEVVRAEIMRSFSFSTNLQESLRSKE | > 8 | > 8 |  | 
4 | 25epi19 (ligand) CDLPQTHSLSNRRTLMLMAQMRRISPFSCLKDRHDFGFPEEEFDGHQAQKVQAIFLLYELIQQTFNLFSTKDSSAAWDETLLEKFYIELFQQMNNLEACVIQEVGVEEIALMNVDSILAVRKYFRRITLYLTEKKYSPCAWEVVRAEIMRSFSFSTNLQESLRSKE | > 8 | > 8 | > 30 | 
5 | 14epi20 (ligand) CDLPQTHSLGHRRTMMLLAQMRRISLFSCLKDRHDFRFPQEEFDGNHAQKVQAISLFYEMMQQTFNLFSTKDSSAAWDETLLEKFYIELFQQMNDLEACVMQEVGVEETPLMNVDSILAVRKYFQRITLYLTEKKYSPCAWEVVRAEIMRSFSFSTNLQESLRSKE | > 8 | > 8 |  | 
6 | 14epi21 (ligand) CDLPQTHSLGHRRTMMLLAQMRRISLFSCLKDRHDFRFPQEEFDGNHFQKVQAIALFYEMMQQTFNLFSTKDSSAAWDETLLEKFYIELFQQMNDLEACVMQEVGVEETPLMNVDSILAVRKYFQRITLYLTEKKYSPCAWEVVRAEIMRSFSFSTNLQESLRSKE | > 8 | > 8 |  | 
7 | 14epi25 (ligand) CDLPQTHSLGHRRTMMLLAQMRRISLFSCLKDRHDFRFPQEEFDGNHLQKVQAISLFYEMMQQTFNLFSTKDSSAAWDETLLEKFYIELFQQMNDLEACVMQEVGVEETPAMNVDSILAVRKYFQRITLYLTEKKYSPCAWEVVRAEIMRSFSFSTNLQESLRSKE | > 8 | > 8 |  | 
8 | MonoPEGylated 14epi18 (ligand, single 40 kDa branched PEG (mPEG2-NHS) on a lysine; positional isomers predominantly monoPEGylated at Lys122 and Lys135) MCDLPQTHSLGHRRTMMLLAQMRRISLFSCLKDRHDFRFPQEEFDGNHAQKVQAIFLFYEMMQQTFNLFSTKDSSAAWDETLLEKFYIELFQQMNDLEACVMQEVGVEETPLMNVDSILAVRKYFQRITLYLTEKKYSPCAWEVVRAEIMRSFSFSTNLQESLRSKE |  |  |  | > 10
9 | MonoPEGylated 25epi19 (ligand, single 40 kDa branched PEG (mPEG2-NHS) on a lysine; positional isomers predominantly monoPEGylated at Lys31, Lys122 and Lys135) MCDLPQTHSLSNRRTLMLMAQMRRISPFSCLKDRHDFGFPEEEFDGHQAQKVQAIFLLYELIQQTFNLFSTKDSSAAWDETLLEKFYIELFQQMNNLEACVIQEVGVEEIALMNVDSILAVRKYFRRITLYLTEKKYSPCAWEVVRAEIMRSFSFSTNLQESLRSKE |  |  |  | > 10
10 | 14epi32 (ligand) CDLPQTHSLGHRRTMMLLAQMRRISLFSCLKDRHDFRFPQEEFDGNHLQKVPAISLFYEMMQQTFNLFSTKDSSAAWDETLLEKFYIELFQQMNDLEACVMQEVGVEETPLMKEDSILAVRKYFQRITLYLTEKKYSPCAWEVVRAEIMRSFSFSTNLQESLRSKE | > 8 | > 8 |  | 
11 | 14epi33 (ligand) CDLPQTHSLGHRRTMMLLAQMRRISLFSCLKDRHDFRFPQEEFDGNHFQKVPAISLFYEMMQQTFNLFSTKDSSAAWDETLLEKFYIELFQQMNDLEACVMQEVGVEETPLMKEDSILAVRKYFQRITLYLTEKKYSPCAWEVVRAEIMRSFSFSTNLQESLRSKE | > 8 | > 8 |  | 
12 | 14epi34 (ligand) CDLPQTHSLGHRRTMMLLAQMRRISLFSCLKDRHDFRFPQEEFDGNHFQKVPAISLFYEMMQQTFNLFSTKDSSAAWDETLLEKFYIELFQQMNDLEACVMQEVGVEETPLMNEDSILAVRKYFQRITLYLTEKKYSPCAWEVVRAEIMRSFSFSTNLQESLRSKE | > 8 | > 8 |  | 
13 | 14epi22 (ligand) CDLPQTHSLGHRRTMMLLAQMRRISLFSCLKDRHDFRFPQEEFDGNHFQKVQAISLFYEMMQQTFNLFSTKDSSAAWDETLLEKFYIELFQQMNDLEACVMQEVGVEETPLMNVDSILAVRKYFQRITLYLTEKKYSPCAWEVVRAEIMRSFSFSTNLQESLRSKE | > 8 |  |  | 
14 | 14epi15 (ligand) CDLPQTHSLGHRRTMMLLAQMRRISLFSCLKDRHDFRFPQEEFDGNHLQKVQAIFLFYEMMQQTFNLFSTKDSSAAWDETLLEKFYIELFQQMNDLEACVMQEVGVEETPLMNVDSILAVRKYFQRITLYLTEKKYSPCAWEVVRAEIMRSFSFSTNLQESLRSKE | > 8 | > 8 |  | 
15 | 14epi26 (ligand) CDLPQTHSLGHRRTMMLLAQMRRISLFSCLKDRHDFRFPQEEFDGNHLQKVQAISLFYEMMQQTFNLFSTKDSSAAWDETLLEKFYIELFQQMNDLEACVMQEVGVEETPLMKEDSILAVRKYFQRITLYLTEKKYSPCAWEVVRAEIMRSFSFSTNLQESLRSKE | > 8 |  |  | 
16 | 14epi29 (ligand) CDLPQTHSLGHRRTMMLLAQMRRISLFSCLKDRHDFRFPQEEFDGNHAQKVQAISLFYEMMQQTANLFSTKDSSAAWDETLLEKFYIELFQQMNDLEACVMQEVGVEETPLMNVDSILAVRKYFQRITLYLTEKKYSPCAWEVVRAEIMRSFSFSTNLQESLRSKE | > 8 |  |  | 
17 | 14epi31 (ligand) CDLPQTHSLGHRRTMMLLAQMRRISLFSCLKDRHDFRFPQEEFDGNHAQKVQAIALFYEMMQQTFNLFSTKDSSAAWDETLLEKFYIELFQQMNDLEACVMQEVGVEETPLMKEDSILAVRKYFQRITLYLTEKKYSPCAWEVVRAEIMRSFSFSTNLQESLRSKE | > 8 |  |  | 
18 | 14epi16 (ligand) CDLPQTHSLGHRRTMMLLAQMRRISLFSCLKDRHDFRFPQEEFDGNHLQKVQAIALFYEMMQQTFNLFSTKDSSAAWDETLLEKFYIELFQQMNDLEACVMQEVGVEETPLMNVDSILAVRKYFQRITLYLTEKKYSPCAWEVVRAEIMRSFSFSTNLQESLRSKE | > 8 | > 8 |  | 
19 | 14epi17 (ligand) CDLPQTHSLGHRRTMMLLAQMRRISLFSCLKDRHDFRFPQEEFDGNHLQKVQAISLFYEMMQQTFNLFSTKDSSAAWDETLLEKFYIELFQQMNDLEACVMQEVGVEETPLMNVDSILAVRKYFQRITLYLTEKKYSPCAWEVVRAEIMRSFSFSTNLQESLRSKE | > 8 | > 8 |  | 
